{"source": "patent US20150343090A1", "target": "neuropilin-1 (NRP-1) receptor on PPC-1 prostate cancer cells (human) (UniProt O14786)", "sequence (O14786 22-923)": "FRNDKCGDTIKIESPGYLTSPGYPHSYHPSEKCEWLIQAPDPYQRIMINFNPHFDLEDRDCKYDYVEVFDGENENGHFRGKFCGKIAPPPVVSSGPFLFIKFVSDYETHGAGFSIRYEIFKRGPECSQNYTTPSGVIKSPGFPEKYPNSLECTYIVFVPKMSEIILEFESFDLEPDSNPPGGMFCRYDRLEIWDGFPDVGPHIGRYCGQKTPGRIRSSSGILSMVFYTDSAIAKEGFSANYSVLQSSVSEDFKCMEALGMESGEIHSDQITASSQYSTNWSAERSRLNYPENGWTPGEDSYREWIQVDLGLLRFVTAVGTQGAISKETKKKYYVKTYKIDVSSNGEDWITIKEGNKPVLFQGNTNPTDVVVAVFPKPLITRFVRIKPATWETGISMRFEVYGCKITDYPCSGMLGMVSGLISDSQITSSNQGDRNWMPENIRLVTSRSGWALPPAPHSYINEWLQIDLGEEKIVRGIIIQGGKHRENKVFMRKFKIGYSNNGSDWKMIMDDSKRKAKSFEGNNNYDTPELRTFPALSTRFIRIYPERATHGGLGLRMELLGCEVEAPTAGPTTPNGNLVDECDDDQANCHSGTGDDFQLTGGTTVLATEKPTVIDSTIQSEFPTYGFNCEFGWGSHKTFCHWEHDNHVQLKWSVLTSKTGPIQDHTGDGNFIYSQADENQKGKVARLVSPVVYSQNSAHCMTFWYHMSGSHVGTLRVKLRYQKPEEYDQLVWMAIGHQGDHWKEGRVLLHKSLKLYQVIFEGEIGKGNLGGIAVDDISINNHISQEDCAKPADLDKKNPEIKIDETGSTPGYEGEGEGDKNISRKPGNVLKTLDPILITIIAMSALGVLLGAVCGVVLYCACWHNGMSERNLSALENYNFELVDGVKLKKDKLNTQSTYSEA", "test": "cell-based or functional assay", "data": [{"substance": "His-tag-GFP-RPARPAR (RPARPAR-modified GFP fusion protein) loaded on NTA-Ni hollow gold nanoshells", "values": [{"measurement": "GFP internalized per PPC-1 cell (cell lysate fluorescence) (GFP molecules per cell)", "result": 100000}, {"measurement": "nanoshells internalized per PPC-1 cell (calculated from cell lysate fluorescence) (RPARPAR GFP-HGN per cell)", "result": 200}]}]}
